Here are results for four molecules from patent US20170022291A1 (Adimab, published 2017).

Like-named read-outs stand apart in the source and are kept apart here.

Experiment [1] has as its target T1, EGFR (UniProt P00533 25-645, limits assumed).
T1 construct: also called Antigen 1
Nature of the experiment: affinity of the EGFR binding region in the IgG-Fab; method not named on the sheet or in the legend.

The target of experiment [2] is T2, Human Epidermal Growth Factor Receptor 3 (HER3), soluble antigen (human, UniProt P21860 20-643, limits assumed).
T2 construct: also called b-HER3; b-HER3-HIS
Briefly: affinity of the HER3 binding region in the IgG-Fab; method not named on the sheet or in the legend.

The target in experiment [3] is T1, EGFR. Nature of the experiment: affinity of the EGFR binding region in the IgG-Fab; method not named on the sheet or in the legend. This is another data set of the same source.
In experiment [4] the target is T3, Human Epidermal Growth Factor Receptor 2 (HER2), soluble antigen (human, UniProt P04626 23-652, limits assumed).
T3 construct: also called b-HER2; b-HER2-HIS
Nature of the experiment: affinity of the HER2 binding region in the IgG-Fab; method not named on the sheet or in the legend.

B1: N-terminal EGFR::C-terminal HER3 multispecific antibody analog (Analog 3) (bispecific antibody, human IgG1, kappa)
heavy: not shown
light: DIQLTQSPSSVSASVGDRVTITCRASQDISSWLAWYQQKPGKAPKLLIYAASSLQSGVPSRFSGSGSGTDFTLTISSLQPEDFATYYCQQEHDFPWTFGGGTKVEIKRTVAAPSVFIFPPSDEQLKSGTASVVCLLNNFYPREAKVQWKVDNALQSGNSQESVTEQDSKDSTYSLSSTLTLSKADYEKHKVYACEVTHQGLSSPVTKSFNRGEC
notes: IgG-Fab 2+2 format: EGFR VH-CH1-hinge-CH2-CH3-(G4S)3-HER3 VH-CH1, two copies, with four copies of the common light chain; also called N-term-EGFR::C-term-HER3; EGFR-HER3 IgG-Fab
One may read the Kd as the equilibrium constant for the complex coming apart. Consider B1, for which the Kd in experiment [1] was 0.29 nM; in experiment [2] it was 0.049 nM.

B2: N-terminal HER3::C-terminal EGFR multispecific antibody analog (Analog 4) (bispecific antibody, human IgG1, kappa)
heavy: not shown
light: DIQLTQSPSSVSASVGDRVTITCRASQDISSWLAWYQQKPGKAPKLLIYAASSLQSGVPSRFSGSGSGTDFTLTISSLQPEDFATYYCQQEHDFPWTFGGGTKVEIKRTVAAPSVFIFPPSDEQLKSGTASVVCLLNNFYPREAKVQWKVDNALQSGNSQESVTEQDSKDSTYSLSSTLTLSKADYEKHKVYACEVTHQGLSSPVTKSFNRGEC
notes: IgG-Fab 2+2 format: HER3 VH-CH1-hinge-CH2-CH3-(G4S)3-EGFR VH-CH1, two copies, with four copies of the common light chain; also called N-term-HER3::C-term-EGFR; HER3-EGFR IgG-Fab
As for B2, the equilibrium dissociation constant (Kd) came out at 0.87 nM in experiment [1] and 0.049 nM in experiment [2].

B3: N-terminal-EGFR::C-terminal HER2 multispecific antibody analog (Analog 1) (bispecific antibody)
heavy: not shown
light: DIQLTQSPSTLSASVGDRVTITCRASQAISSWLAWYQQKPGKAPKLLIYDASSLESGVPSRFSGSGSGTEFTLTISSLQPDDFATYYCHQYQSYSWTFGGGTKVEIKRTVAAPSVFIFPPSDEQLKSGTASVVCLLNNFYPREAKVQWKVDNALQSGNSQESVTEQDSKDSTYSLSSTLTLSKADYEKHKVYACEVTHQGLSSPVTKSFNRGEC
notes: IgG-Fab 2+2 format: EGFR VH-CH1-hinge-CH2-CH3-(G4S)3-HER2 VH-CH1, two copies, with four copies of the common light chain; also called N-term-EGF::C-term-HER2; EGFR-HER2 IgG-Fab
Turning to B3, the results for the Kd in experiment [3] and in experiment [4] were 0.17 nM and 8.2 nM, respectively.

B4: N-terminal HER2::C-terminal EGFR multispecific antibody analog (Analog 2) (bispecific antibody, human IgG1, kappa)
heavy: not shown
light: DIQLTQSPSTLSASVGDRVTITCRASQAISSWLAWYQQKPGKAPKLLIYDASSLESGVPSRFSGSGSGTEFTLTISSLQPDDFATYYCHQYQSYSWTFGGGTKVEIKRTVAAPSVFIFPPSDEQLKSGTASVVCLLNNFYPREAKVQWKVDNALQSGNSQESVTEQDSKDSTYSLSSTLTLSKADYEKHKVYACEVTHQGLSSPVTKSFNRGEC
notes: IgG-Fab 2+2 format: HER2 VH-CH1-hinge-CH2-CH3-(G4S)3-EGFR VH-CH1, two copies, with four copies of the common light chain; also called N-term-HER2::C-term-EGFR; HER2-EGFR IgG-Fab
In the case of B4, the dissociation constant Kd in experiment [3] is 0.47 nM; in experiment [4], 0.1 nM.
